From paper PMC3775653 (Journal of the American Chemical Society, 2013)

Target: the molecule itself
Assay: AUC

B1: AmpDh2 (zinc protease of Pseudomonas aeruginosa), recombinant, without the 17-amino-acid N-terminal membrane anchor (enzyme)
chain: SSGPRLNTDYTSANQDSRVQFIVLHYTSTDLPHSLGILTHGGVSAHYLIGDDEPATVYRLVDENRRAWHAGVSEWQGRTWLNATSIGIEIVNQGYRDTPQGRVWYPFSEAQIQALIPLLKDIAKRHGITPDRIIGHSDIAPGRKVDPGPLFPWKRLADAGLVPWPKPGELARRLAELNGQLPDVRWFQQQLARHGYLVPQTGELEKDTRDVIGAFQMKYRPARFDGEPDLETAALLLAVPTS
- stoichiometry N: 2
